# Reference: IntAct's records for PubMed 9867828
# B1: Protein S100-A9 (Homo sapiens), P06702 (parent)
# chain: MTCKMSQLERNIETIINTFHQYSVKLGHPDTLNQGEFKELVRKDLQNFLKKENKNEKVIEHIMEDLDTNADKQLSFEEFIMLMARLTWASHEKMHEGDEGPGHHHKPGLGEGTP
# partner: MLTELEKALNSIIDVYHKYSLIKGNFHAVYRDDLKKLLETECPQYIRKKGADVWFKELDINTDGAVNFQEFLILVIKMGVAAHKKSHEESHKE
# Variants of: B1
# Details: with S100A8, P05109
row,effect of a mutation on the interaction,Variant
1,decreasing interaction,C3S
